Test results reported in the supplement of paper PMC12042874.
± gives the uncertainty stated by the source.

Columns and labels:
[1] = amyloid nucleation score (Sup35N fusion, yeast selection) (log enrichment); library NNK2; higher = more nucleation; inactive = no reads after selection
In short: (§1)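 Libraries of peptides of 20 random codons fused to Sup35N were expressed in psi-negative yeast and induced 24 hours with 100 μM copper sulfate. Selection was 7 days at 30°C on medium lacking adenine and uracil, and plasmid inserts were Illumina-sequenced before and after selection. Nucleation score is the DiMSum log enrichment of output over input reads, centred on the mode score of non-aggregating sequences, and sequences with under 100 input reads were left out.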

[2] = amyloid nucleation score (Sup35N fusion, yeast selection) (log enrichment); library NNK3; higher = more nucleation; inactive = no reads after selection
In short: as §1

Substance | amyloid nucleation score [1] | amyloid nucleation score [2]
AAFQSMENCCAFCSVRRQES | -0.406 ± 0.38 | –
AAKDSAWFHAIWVKKVRREV | 1.01 ± 0.68 | –
AALGTDMSNWVHSRLNQERR | 0.433 ± 0.45 | –
AAPGCFNLKFLS | -0.36 ± 0.74 | –
AAQIHYSKYNDDVYFSFEEK | 0.283 ± 0.37 | –
ACFHGFPIYGCLLANAMCGR | 1.33 ± 0.67 | –
ACLFWIYARRHRLAWVVFIW | -0.487 ± 1.1 | –
ACNWLESFIKCFICVWYRDK | 7.73 ± 0.079 | –
ACSDGVAMECKV | -0.429 ± 0.44 | –
ADFTWVKSHVCHMEWSR | 0.551 ± 0.42 | –
ADGFVSSIVLT | 0.006 ± 0.24 | –
ADRYMHSTHVDNCPYAGFTS | 0.444 ± 0.44 | –
ADSWWSLYNIFEFSSINLNV | inactive | –
AEMVSANRLSKCEMTIRLWD | 3.64 ± 0.077 | –
AERIFSQ | -1.45 ± 0.62 | –
AEVGTPESLLEGNIDRERIP | 0.42 ± 0.36 | –
AEYKRGKEGSPLAIWWQLDP | 2.34 ± 0.13 | –
AEYPHAFFSDCACYHIPGSA | 0.586 ± 0.57 | –
AFCKALCIVRRYSPPPLIVA | inactive | –
AFDEVSSFGGFFERCFWIKL | 5.91 ± 0.076 | –
AFGFSI | -1.3 ± 0.42 | –
AFGKACPGMCMTKFTACTNR | 0.569 ± 0.13 | –
AFICMFVIRFDWYNMS | -0.558 ± 1 | –
AFNATIRNAC | -0.746 ± 0.62 | –

Substance | amyloid nucleation score [1] | amyloid nucleation score [2]
AFSMCSDRWIWLSCLNVEFV | 9.677 ± 0.048 | –
AFWRLAVLFVVCRIIF | 0.13 ± 0.65 | –
AFYCTVC | 7.346 ± 0.043 | –
AFYKFMSEHSSAVHCDPMHD | -0.025 ± 0.76 | –
AGFWEDEVFRV | -0.714 ± 0.48 | –
AGMMFKR | 1.71 ± 0.37 | –
AGSGFRSATWYRASTWMAFG | 2.93 ± 0.13 | –
AGSSS | -0.561 ± 0.63 | –
AHFQYRGNRAFQVWNYCGKY | 2.55 ± 0.12 | –
AHPMEQCKIL | 0.545 ± 0.41 | –
AHTRSAMGDMPNVNGFLKCT | inactive | –
AIDAFFLSV | -0.191 ± 0.26 | –
AIMGHGLPYGTGLMEVGGAK | 5.13 ± 0.084 | –
AITGGFSAFIRYYGVMYDVG | -0.736 ± 0.45 | –
AIYKDRGWGATGHVFRILGR | 0.752 ± 0.57 | –
AIYLWSF | 4.85 ± 0.054 | –
AKVRLYVRGGSLLIGIRSVV | 0.555 ± 0.22 | –
AKWRDRSETYYLYFRISVRI | -0.493 ± 1.1 | –
ALATFVTPVAESA | 4.05 ± 0.05 | –
ALDSNSWPYDGGMWRTT | -0.232 ± 1.1 | –
ALFRPEYRFM | 2.64 ± 0.13 | –
ALFVYYDIQVVGITY | -1.1 ± 0.4 | –
ALILAVLPSKDPIRVCWYSG | 0.04 ± 0.33 | –
ALLALTVLIYNLIDMLQVNR | 0.728 ± 0.8 | –

Substance | amyloid nucleation score [1] | amyloid nucleation score [2]
ALSSVFYIDFHFDYLYDVTL | 2.72 ± 0.2 | –
ALVCLMKSSFCTCEHLYDVR | 7.168 ± 0.044 | –
ALWCRENFINCYIPYLQMFF | 6.219 ± 0.036 | –
ALYRL | 0.233 ± 0.62 | –
AMMFDVFRYLRESVISMCKG | 0.367 ± 0.54 | –
AMNRFST | -0.975 ± 1.1 | –
ANCCLRTWVFCRSYCYIILF | -0.014 ± 0.8 | –
ANGSKGLVLTLNGDSKCVEC | 0.188 ± 0.25 | –
ANKSAGVLYNAASDLRVGVR | 0.923 ± 0.55 | –
ANPQSKLLNVSFIGTVQGWV | 3.04 ± 0.12 | –
ANPWDRSFIVKVCRSDVVRV | 0.246 ± 0.38 | –
ANRKRVK | 0.223 ± 0.61 | –
ANSAYCIGLCLGNCFMSYFC | 7.452 ± 0.043 | –
ANSPVGHEPGFECKSGFRET | 0.168 ± 0.57 | –
ANTFIPFFGISSVRSGRNAA | 2.65 ± 0.11 | –
ANTVHLKMLANSRSPDGTFR | 0.441 ± 0.32 | –
ANVENVAYSDTISRSDSDVT | 0.805 ± 0.66 | –
APFDMVGVTVLDSPVMYTNA | 0.512 ± 0.43 | –
APVMYVT | 0.057 ± 0.48 | –
AQWCEGVVSLQLSWVVCVEG | 1.16 ± 0.34 | –
ARCDCGFVRGGNCVVQYCLS | 7.529 ± 0.04 | –
ARECNY | 3.78 ± 0.063 | –
YLSIGSVSMSAGASANDAQ | – | inactive
YLSPEAQKLDQIDSMSADMV | – | inactive

Substance | amyloid nucleation score [1] | amyloid nucleation score [2]
YLWEYSEMLSTDI | – | inactive
YLWLWASWSWRGNQNKTSWA | – | inactive
YLWPLFFSFE | – | inactive
YLYGGQRVGSF | – | inactive
YLYSCDSFCFLDPRYMRCPE | – | inactive
YMCSLLMIAKSMPGRG | – | 1.42 ± 0.14
YMDLSILGAMVSVSFNMG | – | 2.56 ± 0.063
YMGCIYIPYVKFYFKM | – | 1.26 ± 0.081
YMGLTLSVMRPGMTYFPKMF | – | inactive
YMIATGTVGWNRLTLKCVVV | – | inactive
YMLQVRCSVDLFVLDTMCFL | – | inactive
YMSYRSLMNSLTSIL | – | inactive
YNCRVAVRWYS | – | inactive
YNGLVGLSNPCTIWESGWVW | – | inactive
YNLSNTVLAISVGERNT | – | inactive
YNMTLTYLRLLGAGSIISCL | – | inactive
YNQCWLTIDINFRYLLA | – | 1.4 ± 0.15
YNSLRGR | – | inactive
YNVFEALLNRWH | – | inactive
YPALINSVFITDAIGGPYCL | – | inactive
YPLCEL | – | 0.193 ± 0.19
YPMLLALYTGSVFNFNRCRL | – | 2.07 ± 0.089
YPMTQALVTSWVLHCTAMKM | – | inactive
YPRDWGYALRLYYVEKKLR | – | inactive

Substance | amyloid nucleation score [1] | amyloid nucleation score [2]
YPTWKGIFNRWAEYCIRLPV | – | -0.266 ± 0.36
YQCSASFYRTNVGPSTGHQL | – | 1.13 ± 0.11
YQRLHSL | – | inactive
YRAIVSHNAMTPV | – | inactive
YREREAAR | – | inactive
YRFSRFKMRAVPTMILKLNV | – | -0.056 ± 0.35
YRGWLNPEYHRLVN | – | 0.008 ± 0.85
YRIGCRF | – | inactive
YRIVLIFCEISNAMGVVQTS | – | inactive
YRIYFLRCPDLTRMFNFVEL | – | inactive
YRMICPAIV | – | inactive
YRMNDGNDGICMVWLRNSAY | – | inactive
YRNSC | – | inactive
YRSTLEKVSVGMMENICVGI | – | 0.028 ± 0.2
YRTRESGLY | – | -0.425 ± 1.1
YSESMRGNQ | – | inactive
YSFDASTYIYVSGRLFNKSV | – | inactive
YSGTKY | – | inactive
YSINTFLICYYMVRPY | – | 2.36 ± 0.065
YSIVRGWMDARDLHMLHLEI | – | inactive
YSLAELMCMKEHLPMRNGCF | – | 0.774 ± 0.14
YSMIKFSISAD | – | inactive
YSNVNALISSTSLYLCCCML | – | 0.644 ± 0.23
YSPDMRGMFIGGPDSVPLEG | – | inactive

Substance | amyloid nucleation score [1] | amyloid nucleation score [2]
YSPSLGSDQACSQLCSLSTF | – | inactive
YSQFCYIVHLVIGMVDSRRC | – | inactive
YSQVVW | – | inactive
YSRDSGCRIKVVPALTVRGR | – | inactive
YSRGV | – | inactive
YSTNVSYY | – | inactive
YSTVDQLARGLQKLMVWLDV | – | inactive
YSVAVREIVGMNSKLLCDVN | – | inactive
YSVWVGLCVYSDGYRYNMPE | – | 2.06 ± 0.062
YSYANSMNMGMMFMGRLGW | – | inactive
YSYAQMSLMEQQMLIRT | – | inactive
YSYICIILYWWCSRSAILPF | – | inactive
YSYRVRTSFVENRKCA | – | inactive
YTRDRQV | – | inactive
YTRGTWS | – | inactive
YTVGIVTDWFVTSGNSFYK | – | inactive
YTVRMWKDDVRARRGSQGVW | – | inactive
YVFKMWLGPSSLIEFDLKRH | – | 2.88 ± 0.062
YVHFLFQTHIRCMVRFSLCW | – | inactive
YVIYFSN | – | -0.389 ± 0.93
YVLRCVFSSDNKDGAWTTWI | – | inactive
YVNFWKLVIREINFKKNGEP | – | inactive
YVRNQVNFSLAWLLITKLTK | – | 1.94 ± 0.085
YVSIWNHDADRGRC | – | inactive

Substance | amyloid nucleation score [1] | amyloid nucleation score [2]
YVSLCTTPVGERTSYSCDIH | – | inactive
YVSPNF | – | inactive
YVTDMRCGVL | – | inactive
YWLNK | – | inactive
YWMLNAHRNW | – | inactive
YWMMLRT | – | inactive
YWQHWWL | – | inactive
YWVGEWLMCPYTR | – | inactive
YWVWLGPQNI | – | 0.115 ± 0.41
YWYTTCIWRVTSNCWVCISW | – | inactive
YYCCC | – | 1.63 ± 0.072
YYCDLRSYIRSPG | – | inactive
YYFHRFL | – | inactive
YYFTVLRLVVNMAIVSPCPQ | – | inactive
YYPQRAGYRVPVFLWIGNWR | – | inactive
YYQLKSHVVRDGHVWTICGS | – | inactive
YYSGVFPNVVGRS | – | inactive
YYSLWRSIIVEACRFC | – | inactive
YYTSYIAGNLAFNTSKFRKM | – | -0.347 ± 0.7
YYVIDILVW | – | inactive
YYYLKVHNLVSYVNAFVR | – | inactive
YYYSMVTTLRGAISILRNPA | – | inactive
